Paper PMC5762417

Experiments:
[1] = molecular target: Rev (Human immunodeficiency virus 1) (UniProt P04325); test: fluorescence binding; conditions: cited from earlier work
[2] = molecular target: Rev WT, labelled with Alexa 555 (HIV-1) (UniProt P04616); test: fluorescence polarisation
DDX21 = test: EMSA

| Molecule | Kd [2] | other results |
| --- | --- | --- |
| DDX1 DEAD domain (from UniProt Q92499) | – | Kd [1]: 79 nM |
| DDX3 (from UniProt O00571 1-662) (enzyme) | 122 nM | – |
| DDX3 DEAD domain (aa 211-403) (from UniProt O00571 211-403) (domain or fragment) | 200 nM | – |
| RRE RNA (EMSA) | – | Kd (DDX21): 37 nM |
| DDX21(183-620) (domain or fragment) QKEGAFSNFPISEETIKLLKGRGVTFLFPIQAKTFHHVYSGKDLIAQARTGTGKTFSFAIPLIEKLHGELQDRKRGRAPQVLVLAPTRELANQVSKDFSDITKKLSVACFYGGTPYGGQFERMRNGIDILVGTPGRIKDHIQNGKLDLTKLKHVVLDEVDQMLDMGFADQVEEILSVAYKKDSEDNPQTLLFSATCPHWVFNVAKKYMKSTYEQVDLIGKKTQKTAITVEHLAIKCHWTQRAAVIGDVIRVYSGHQGRTIIFCETKKEAQELSQNSAIKQDAQSLHGDIPQKQREITLKGFRNGSFGVLVATNVAARGLDIPEVDLVIQSSPPKDVESYIHRSGRTGRAGRTGVCICFYQHKEEYQLVQVEQKAGIKFKRIGVPSATEIIKASSKDAIRLLDSVPPTAISHFKQSAEKLIEEKGAVEALAAALAHISG | 48 nM | – |
| DDX21 (enzyme) MPGKLRSDAGLESDTAMKKGETLRKQTEEKEKKEKPKSDKTEEIAEEEETVFPKAKQVKKKAEPSEVDMNSPKSKKAKKKEEPSQNDISPKTKSLRKKKEPIEKKVVSSKTKKVTKNEEPSEEEIDAPKPKKMKKEKEMNGETREKSPKLKNGFPHPEPDCNPSEAASEESNSEIEQEIPVEQKEGAFSNFPISEETIKLLKGRGVTFLFPIQAKTFHHVYSGKDLIAQARTGTGKTFSFAIPLIEKLHGELQDRKRGRAPQVLVLAPTRELANQVSKDFSDITKKLSVACFYGGTPYGGQFERMRNGIDILVGTPGRIKDHIQNGKLDLTKLKHVVLDEVDQMLDMGFADQVEEILSVAYKKDSEDNPQTLLFSATCPHWVFNVAKKYMKSTYEQVDLIGKKTQKTAITVEHLAIKCHWTQRAAVIGDVIRVYSGHQGRTIIFCETKKEAQELSQNSAIKQDAQSLHGDIPQKQREITLKGFRNGSFGVLVATNVAARGLDIPEVDLVIQSSPPKDVESYIHRSGRTGRAGRTGVCICFYQHKEEYQLVQVEQKAGIKFKRIGVPSATEIIKASSKDAIRLLDSVPPTAISHFKQSAEKLIEEKGAVEALAAALAHISGATSVDQRSLINSNVGFVTMILQCSIEMPNISYAWKELKEQLGEEIDSKVKGMVFLKGKLGVCFDVPTASVTEIQEKWHDSRRWQLSVATEQPELEGPREGYGGFRGQREGSRGFRGQRDGNRRFRGQREGSRGPRGQRSGGGNKSNRSQNKGQKRSFSKAFGQ | 21 nM | – |
| DDX21 DEAD domain (aa 217-396) (domain or fragment) FHHVYSGKDLIAQARTGTGKTFSFAIPLIEKLHGELQDRKRGRAPQVLVLAPTRELANQVSKDFSDITKKLSVACFYGGTPYGGQFERMRNGIDILVGTPGRIKDHIQNGKLDLTKLKHVVLDEVDQMLDMGFADQVEEILSVAYKKDSEDNPQTLLFSATCPHWVFNVAKKYMKSTYEQ | 60 nM | – |
| DDX1 (enzyme) MAAFSEMGVMPEIAQAVEEMDWLLPTDIQAESIPLILGGGDVLMAAETGSGKTGAFSIPVIQIVYETLKDQQEGKKGKTTIKTGASVLNKWQMNPYDRGSAFAIGSDGLCCQSREVKEWHGCRATKGLMKGKHYYEVSCHDQGLCRVGWSTMQASLDLGTDKFGFGFGGTGKKSHNKQFDNYGEEFTMHDTIGCYLDIDKGHVKFSKNGKDLGLAFEIPPHMKNQALFPACVLKNAELKFNFGEEEFKFPPKDGFVALSKAPDGYIVKSQHSGNAQVTQTKFLPNAPKALIVEPSRELAEQTLNNIKQFKKYIDNPKLRELLIIGGVAARDQLSVLENGVDIVVGTPGRLDDLVSTGKLNLSQVRFLVLDEADGLLSQGYSDFINRMHNQIPQVTSDGKRLQVIVCSATLHSFDVKKLSEKIMHFPTWVDLKGEDSVPDTVHHVVVPVNPKTDRLWERLGKSHIRTDDVHAKDNTRPGANSPEMWSEAIKILKGEYAVRAIKEHKMDQAIIFCRTKIDCDNLEQYFIQQGGGPDKKGHQFSCVCLHGDRKPHERKQNLERFKKGDVRFLICTDVAARGIDIHGVPYVINVTLPDEKQNYVHRIGRVGRAERMGLAISLVATEKEKVWYHVCSSRGKGCYNTRLKEDGGCTIWYNEMQLLSEIEEHLNCTISQVEPDIKVPVDEFDGKVTYGQKRAAGGGSYKGHVDILAPTVQELAALEKEAQTSFLHLGYLPNQLFRTF | 41 nM | – |
